Measured values published in patent US11419948B2, “Functionalized microgels with fibrin binding elements” (Georgia Tech Research Corporation, priority 2013, dated 2022).

Experiments:
[1] = tested on: platelet poor plasma (PPP); test: Dynamic in vitro clotting in endothelialized microfluidic device; format: biochemical, human; conditions: platelet-poor plasma under flow
Procedure: To characterize the effect of microgels on clotting in vitro, a endothelialized microfluidics device that accurately recapitulates the cellular, physical, and hemodynamic environment of microcirculation, was used as previously described, Jackson, et al., Journal of Thrombosis and Haemostasis: JTH 7 Suppl 1:17-20 (2009). For these experiments, clotting of platelet poor plasma (PPP) was analyzed in the absence or presence of fibrin-binding microgels of varying degrees of crosslinking in real time using confocal microscopy. As a control, clotting of platelet rich plasma (PRP) or PPP in the presence of non-fibrin binding microgels were also investigated. Microgels or buffer were added to PPP immediately prior to injection into the microfluidics device. To visualize clotting, PPP was spiked with Alexa Fluor-488 labeled fibrinogen. Endothelial cells were stained with Cell Mask Deep Red (Invitrogen) and microgels were labeled with Alexa Fluor 546. For experiments utilizing PRP, platelets were stained with Cell Mask Red (Invitrogen). Samples were flowed at 1.1 μL/min and imaged continuously for 20 min. Clotting overtime was characterized through imaging processing with Image J (NIH). Each microfluidic device is comprised of three regions of different flow rates, comprising four endothelialized channels.

traumatic injury = test: Hemostasis in rodents following traumatic injury; format: in vivo; conditions: 100 mg/kg intravenously
human plasma components [2] = test: Quantitative human plasma binding ELISA; conditions: five 10-fold plasma dilutions
Procedure: The quantitative assay involved coating a 96-well high-binding plate with five different 10-fold plasma dilutions. H6, S11, or a positive-control anti-fibrinogen antibody were incubated in these wells to allow for binding with plasma components to occur. All wells were set-up in triplicate. After washing away unbound nanobody or antibody and treating with appropriate secondary antibodies and ELISA reagents, the amount of H6, S11 or anti-fibrinogen antibody remaining in each well was measured spectrophotomerically in a plate reader. All readings were normalized to wells in which PBS was incubated with plasma.

human plasma components [3] = test: Qualitative human plasma assay (protein A pull down, polyacrylamide gel); format: binding; conditions: 30 minutes room temperature
Procedure: H6 binding was determined through both qualitative and quantitative human plasma assays. The qualitative assay involved incubating either H6, the non-binding negative control, S11, or saline with human plasma at room temperature for 30 minutes. The plasma mixtures were subsequently incubated with protein A beads with the intent to pull down all IgG isotypes (including H6 and S11).
The eluants from the protein A pull down experiment were run on a polyacrylamide gradient gel to visualize any band shifts present in the H6-plasma solution that would indicate a binding interaction not present in the S11-plasma or saline-plasma solutions.

fibrinogen [4] = molecular target: T1, fibrinogen (Homo sapiens, UniProt P02671+P02675+P02679); test: SPR on immobilized fibrinogen surface; format: binding
T1 sequence (P02671 20-629 limits assumed): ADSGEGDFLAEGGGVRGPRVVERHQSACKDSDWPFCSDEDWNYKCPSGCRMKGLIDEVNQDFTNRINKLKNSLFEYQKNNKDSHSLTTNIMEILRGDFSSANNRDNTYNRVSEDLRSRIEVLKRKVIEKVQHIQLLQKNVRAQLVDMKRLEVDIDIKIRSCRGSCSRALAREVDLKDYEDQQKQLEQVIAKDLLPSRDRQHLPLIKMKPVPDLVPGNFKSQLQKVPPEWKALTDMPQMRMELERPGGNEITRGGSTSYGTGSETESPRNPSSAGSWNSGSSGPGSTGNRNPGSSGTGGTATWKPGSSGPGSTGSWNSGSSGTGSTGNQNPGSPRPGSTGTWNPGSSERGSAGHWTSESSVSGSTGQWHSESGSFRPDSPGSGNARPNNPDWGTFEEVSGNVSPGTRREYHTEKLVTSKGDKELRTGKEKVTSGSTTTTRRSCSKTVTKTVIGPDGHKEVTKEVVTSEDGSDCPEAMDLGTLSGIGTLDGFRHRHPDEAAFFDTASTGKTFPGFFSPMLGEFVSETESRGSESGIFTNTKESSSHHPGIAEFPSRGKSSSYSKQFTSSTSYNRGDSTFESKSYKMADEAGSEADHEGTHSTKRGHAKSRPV
T1 sequence (P02675 31-491): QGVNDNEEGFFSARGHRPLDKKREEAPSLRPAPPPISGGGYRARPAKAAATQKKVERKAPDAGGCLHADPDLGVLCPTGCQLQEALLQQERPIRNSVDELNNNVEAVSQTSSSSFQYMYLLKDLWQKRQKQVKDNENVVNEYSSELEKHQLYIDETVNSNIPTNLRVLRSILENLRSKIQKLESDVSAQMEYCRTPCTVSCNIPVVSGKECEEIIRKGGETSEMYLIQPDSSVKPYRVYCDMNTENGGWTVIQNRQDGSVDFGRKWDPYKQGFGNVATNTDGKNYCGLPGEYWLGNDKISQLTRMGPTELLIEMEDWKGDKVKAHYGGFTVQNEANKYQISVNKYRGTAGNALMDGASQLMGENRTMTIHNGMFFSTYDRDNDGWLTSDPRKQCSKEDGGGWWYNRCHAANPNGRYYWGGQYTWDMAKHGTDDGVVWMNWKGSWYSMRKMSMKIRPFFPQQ
T1 sequence (P02679 27-453): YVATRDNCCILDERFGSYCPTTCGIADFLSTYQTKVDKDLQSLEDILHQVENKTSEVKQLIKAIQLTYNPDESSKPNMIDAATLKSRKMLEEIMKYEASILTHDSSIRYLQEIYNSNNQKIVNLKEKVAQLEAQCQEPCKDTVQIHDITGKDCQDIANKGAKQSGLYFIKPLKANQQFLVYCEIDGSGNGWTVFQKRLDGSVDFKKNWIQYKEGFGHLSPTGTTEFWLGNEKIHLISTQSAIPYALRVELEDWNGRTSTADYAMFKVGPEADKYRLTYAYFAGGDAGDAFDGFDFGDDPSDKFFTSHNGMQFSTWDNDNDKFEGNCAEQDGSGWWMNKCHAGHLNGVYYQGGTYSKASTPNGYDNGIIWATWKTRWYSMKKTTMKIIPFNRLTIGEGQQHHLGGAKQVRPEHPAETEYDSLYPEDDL
Procedure: Based on previous SPR protocols developed in the lab^4, a thin fibrin layer was immobilized on the surface of a gold SPR chip via layer-by-layer deposition of fibrinogen-thrombin-fibrinogen^3. SdFvs were flowed across the fibrin surface and the binding interactions were evaluated and recorded. Additionally, antibody fragment binding interactions with a surface of immobilized fibrinogen was used to investigate the specificity to fibrin. All SPR data was examined and analyzed with Scrubber 2 and Clamp XP (Center for Biomolecular Interactions Analysis, University of Utah). Data simulation curves were generated based on a Langmuir 1:1 binding model assuming only a single ligand-analyte interaction.

fibrinogen [5] = molecular target: T1, fibrinogen; test: Clottability assay (protein incorporation into clot); format: biochemical; conditions: all H6 concentrations tested
Procedure: The clottability assay involved clotting purified fibrinogen or fibrinogen in the presence of H6 or S11, subsequently removing the gelled clot from solution, and measuring the amount of protein that was not incorporated into the clot. The same molar ratios of H6 and S11 to fibrinogen were investigated as per the turbidity assay. Soluble protein concentrations were measured using standard Quant-It assay protocols, and results were normalized to unpolymerized fibrinogen or fibrinogen-nanobody solutions of identical protein composition.

B1: PLPs: ultra-low crosslinked pNIPAm-AAc microgels conjugated to fibrin-specific sdFv H6 (conjugate)
VH: QVQLLESGGGLVQPGGSLRLSCAASGDRFTHNDMGWVRQAPGKGLEWVSTIPTTDGSTYYADSVKGRFTISRDNSKSTLYLQMNSLRAEDTAVYYCATGYMWKAPAYVKYWGQGTLVTVSSAAAEQKLISEEDLNSAAHYTDIG
**Q.** Which results are given for B1?
**A.** fibrin clot formation in response to thrombin [1]: successfully rescued fibrin clot formation; augmentation of hemostasis (traumatic injury): effective to augment hemostasis

B2: H6: fibrin-specific human sdFv clone from phage biopanning, SEQ ID NO: 1 (protein)
VHH: B1 VH
**Q.** Which results are given for B2?
**A.** binding to plasma-coated plate (human plasma components [2]): negligible binding; non-specific binding to human plasma components (band shifts) (human plasma components [3]): did not non-specifically bind; binding to fibrinogen (fibrinogen [4]): negligible binding; protein incorporation (clottability) (fibrinogen [5]): greater than 80%
